Data taken from patent publication US20070275903A1 (Bristol-Myers Squibb, published 2007).
Starred links: 1 amine or outer side, 2 acyl side, 3 side chain; linkers in the order of their positions; H or OH if unused. Suc = O=C(CCC(=O)[*:2])[*:1]; Dox = doxorubicin

Legend:
[1] = test system: T1, Suc-Leu-Ala-Leu-Dox
T1 sequence: LAL

[2] = test system: T2, Suc-βAla-Leu-Ala-Leu-Dox
T2 sequence: ALAL

[3] = test system: T3, Suc-Leu-Ala-Gly-Dox
T3 sequence: LAG

[4] = test system: T4, Pyg-Leu-Ala-Leu-Dnr
T4 sequence: LAL

[5] = test system: T5, Suc-Leu-Thr-Leu-Dnr
T5 sequence: LTL

[6] = test system: T6, Suc-Met-Ala-Leu-Dox
T6 sequence: MAL

[7] = test system: T7, Suc-Nle-Ala-Leu-Dnr
T7 sequence: XAL

[8] = test system: T8, Suc-Phe-Gly-Phe-Dnr
T8 sequence: FGF

[9] = test system: T9, Suc-Tyr-Ala-Leu-Dnr
T9 sequence: YAL

[10] = test system: T10, Suc-Phe-Gly-Leu-Dnr
T10 sequence: FGL

[11] = test system: T11, Suc-Leu-Tyr-Leu-Dox
T11 sequence: LYL

[12] = test system: T12, Suc-Met-Gly-Ile-Dnr
T12 sequence: MGI

[13] = test system: T13, Suc-Nle-Gly-Phe-Dnr
T13 sequence: XGF

[14] = test system: T14, Suc-Tyr-Ala-Ile-Dnr
T14 sequence: YAI

[15] = test system: T15, Suc-Met-Ala-Leu-Dnr
T15 sequence: MAL

[16] = test system: T16, Suc-Met-Gly-Phe-Dnr
T16 sequence: MGF

[17] = test system: T17, Suc-Met-Gly-Leu-Dnr
T17 sequence: MGL

[18] = test system: T18, Suc-Leu-Ala-Leu-Dnr
T18 sequence: LAL

[19] = test system: T19, Suc-Leu-Tyr-Leu-Dnr
T19 sequence: LYL

[20] = test system: T20, Suc-Phe-Gly-Ile-Dnr
T20 sequence: FGI

[21] = target: CD10 expressed on Ramos and Namalwa B-cell lines (UniProt P08473 2-750, limits assumed); assay: cell-based or functional assay
Chain of CD10 expressed on Ramos and Namalwa B-cell lines (P08473 2-750 limits assumed): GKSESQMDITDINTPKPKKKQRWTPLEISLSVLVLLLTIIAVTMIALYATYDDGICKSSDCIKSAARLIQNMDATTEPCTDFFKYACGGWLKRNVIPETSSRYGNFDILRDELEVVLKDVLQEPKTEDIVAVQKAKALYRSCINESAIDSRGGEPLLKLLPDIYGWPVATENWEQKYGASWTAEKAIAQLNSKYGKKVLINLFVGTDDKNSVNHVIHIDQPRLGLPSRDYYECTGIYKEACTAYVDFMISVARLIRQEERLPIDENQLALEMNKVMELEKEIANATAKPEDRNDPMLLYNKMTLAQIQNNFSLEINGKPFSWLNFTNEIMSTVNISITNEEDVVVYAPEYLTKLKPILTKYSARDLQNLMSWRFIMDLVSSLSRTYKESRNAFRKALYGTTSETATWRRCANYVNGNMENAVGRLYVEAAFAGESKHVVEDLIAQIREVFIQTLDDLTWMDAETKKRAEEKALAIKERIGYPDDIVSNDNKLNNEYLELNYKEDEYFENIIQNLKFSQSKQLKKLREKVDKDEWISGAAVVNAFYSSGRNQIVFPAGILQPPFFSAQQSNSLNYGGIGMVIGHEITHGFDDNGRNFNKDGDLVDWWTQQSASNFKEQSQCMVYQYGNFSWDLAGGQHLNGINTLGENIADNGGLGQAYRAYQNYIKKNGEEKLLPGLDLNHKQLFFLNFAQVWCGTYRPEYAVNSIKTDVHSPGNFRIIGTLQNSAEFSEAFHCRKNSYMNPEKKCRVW

## purified Porcine Kidney CD10 (Elastin Products Company)
[1]
  % hydrolysis/10 hr: 8.3%
  Fraction hydrolyzed relative to standard: 0.75
[2]
  % hydrolysis/10 hr: 10.9%
  Fraction hydrolyzed relative to standard: 1
[3]
  % hydrolysis/10 hr: 0%
  Fraction hydrolyzed relative to standard: 0

## trouase (carcinoma cell enzyme preparations; HeLa cell anion exchange fraction pool)
[4]
  Relative Cleavage %: 76%
  cleavage by carcinoma enzyme preparations (HPLC, 2 hr at 37 C): cleaved by the trouase under the given conditions
[5]
  cleavage by carcinoma enzyme preparations (HPLC, 2 hr at 37 C): cleaved by the trouase under the given conditions
[6]
  Relative Cleavage %: 49%
  cleavage by carcinoma enzyme preparations (HPLC, 2 hr at 37 C): cleaved by the trouase under the given conditions
[7]
  cleavage by carcinoma enzyme preparations (HPLC, 2 hr at 37 C): cleaved by the trouase under the given conditions
[8]
  Relative Cleavage %: 12%
  cleavage by carcinoma enzyme preparations (HPLC, 2 hr at 37 C): cleaved by the trouase under the given conditions
[9]
  Relative Cleavage %: 77%
[1]
  Relative Cleavage %: 62%
  cleavage by carcinoma enzyme preparations (HPLC, 2 hr at 37 C): cleaved by the trouase under the given conditions
[10]
  Relative Cleavage %: 24%
  cleavage by carcinoma enzyme preparations (HPLC, 2 hr at 37 C): cleaved by the trouase under the given conditions
[11]
  cleavage by carcinoma enzyme preparations (HPLC, 2 hr at 37 C): cleaved by the trouase under the given conditions
[12]
  Relative Cleavage %: 46%
  cleavage by carcinoma enzyme preparations (HPLC, 2 hr at 37 C): cleaved by the trouase under the given conditions
[13]
  Relative Cleavage %: 17%
[3]
  Relative Cleavage %: 40%
  cleavage by carcinoma enzyme preparations (HPLC, 2 hr at 37 C): cleaved by the trouase under the given conditions
[14]
  Relative Cleavage %: 25%
  cleavage by carcinoma enzyme preparations (HPLC, 2 hr at 37 C): cleaved by the trouase under the given conditions
[15]
  Relative Cleavage %: 69%
  cleavage by carcinoma enzyme preparations (HPLC, 2 hr at 37 C): cleaved by the trouase under the given conditions
[16]
  Relative Cleavage %: 29%
  cleavage by carcinoma enzyme preparations (HPLC, 2 hr at 37 C): cleaved by the trouase under the given conditions
[17]
  Relative Cleavage %: 55%
  cleavage by carcinoma enzyme preparations (HPLC, 2 hr at 37 C): cleaved by the trouase under the given conditions
[18]
  Relative Cleavage %: 76%
  cleavage by carcinoma enzyme preparations (HPLC, 2 hr at 37 C): cleaved by the trouase under the given conditions
[19]
  cleavage by carcinoma enzyme preparations (HPLC, 2 hr at 37 C): cleaved by the trouase under the given conditions
[20]
  Relative Cleavage %: 54%
  cleavage by carcinoma enzyme preparations (HPLC, 2 hr at 37 C): cleaved by the trouase under the given conditions

## Suc-Leu-Ala-Leu-Dox [Suc-Leu-Ala-Leu-Dox]
[21]
  IC50 (µM), 3H-thymidine incorporation, Namalwa (CD10pos) cells: 2.27 µM
  IC50 (µM), 3H-thymidine incorporation, Ramos (CD10pos) cells: 2.63 µM
  Ratio of IC50 Ball-1 (CD10neg):Namalwa (CD10pos): 35
  Ratio of IC50 Ball-1 (CD10neg):Ramos (CD10pos): 30

## Suc-Leu-Ala-Gly-Dox [Suc-Leu-Ala-Gly-Dox]
[21]
  IC50 (µM), 3H-thymidine incorporation, Namalwa (CD10pos) cells: 17.3 µM
  IC50 (µM), 3H-thymidine incorporation, Ramos (CD10pos) cells: 22.7 µM
  Ratio of IC50 Ball-1 (CD10neg):Namalwa (CD10pos): 1
  Ratio of IC50 Ball-1 (CD10neg):Ramos (CD10pos): 1
